Measurements published in the supplement of paper PMC9732359.
± gives the uncertainty stated by the source.

Assay: protein stability index of a GFP-peptide fusion (yeast GPS) (PSI 1-4); higher = more stable; sorted into four equal gates, so the index is relative within each strain
In short: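 Peptides tiling yeast proteins in 17-residue segments were fused downstream of GFP, with Cherry expressed from the same plasmid. As a pooled library in yeast, mid-log cultures grown in leucine-free medium were sorted into four equal gates by GFP/Cherry fluorescence ratio. Gate plasmids were PCR-amplified and Illumina-sequenced, and barcodes linked reads to strains. Each peptide received a protein stability index equal to the sum of each gate's read frequency times its gate number.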

RNTYQSAMGKQAMGVFL [RPB2]
protein stability index (doa10∆): 1.62 ± 0.097
protein stability index (pdr5∆): 1.63 ± 0.11
protein stability index (san1∆): 1.53 ± 0.12
protein stability index (ubr1∆): 1.79 ± 0.052

SMFGSDQKTGRAKSSSH [RPN4]
protein stability index (doa10∆): 3.02 ± 0.087
protein stability index (pdr5∆): 3.25 ± 0.11
protein stability index (san1∆): 3.14 ± 0.071
protein stability index (ubr1∆): 2.9 ± 0.076

EALAFTSLVANENDKIY [YDL116W/NUP84]
protein stability index (doa10∆): 1.85 ± 0.06
protein stability index (pdr5∆): 2.4 ± 0.052
protein stability index (san1∆): 2.02 ± 0.12
protein stability index (ubr1∆): 2.93 ± 0.062

ITLRTSGELLQGIVRVY [MCD1]
protein stability index (doa10∆): 2.96 ± 0.075
protein stability index (pdr5∆): 2.9 ± 0.063
protein stability index (san1∆): 2.48 ± 0.066
protein stability index (ubr1∆): 3.12 ± 0.057

YNRYRDLMISCLMNQET [MTR3]
protein stability index (doa10∆): 2.44 ± 0.062
protein stability index (pdr5∆): 2.56 ± 0.063
protein stability index (san1∆): 2.31 ± 0.084
protein stability index (ubr1∆): 2.5 ± 0.062

TYDMVGGLTKQIKEIKE [RPT6]
protein stability index (doa10∆): 2.26 ± 0.15
protein stability index (pdr5∆): 2.52 ± 0.17
protein stability index (san1∆): 1.89 ± 0.23
protein stability index (ubr1∆): 2.56 ± 0.08

TSQHSDSLTQNNNNAPI [YOR098C/NUP1]
protein stability index (doa10∆): 2.72 ± 0.051
protein stability index (pdr5∆): 2.95 ± 0.036
protein stability index (san1∆): 2.94 ± 0.043
protein stability index (ubr1∆): 2.88 ± 0.031

IVKFKQKEEGRSFTKAI [YLR335W/NUP2]
protein stability index (doa10∆): 3.13 ± 0.069
protein stability index (pdr5∆): 3.09 ± 0.066
protein stability index (san1∆): 3.24 ± 0.05
protein stability index (ubr1∆): 3.29 ± 0.047

SVAPTKQREIVKAFLSI [NUT1]
protein stability index (doa10∆): 2.1 ± 0.11
protein stability index (pdr5∆): 1.94 ± 0.073
protein stability index (san1∆): 2.41 ± 0.13
protein stability index (ubr1∆): 2.04 ± 0.063

NGGEDTSVENEGPVANL [REC8]
protein stability index (doa10∆): 3.37 ± 0.089
protein stability index (pdr5∆): 3.45 ± 0.094
protein stability index (san1∆): 3.06 ± 0.11
protein stability index (ubr1∆): 3.16 ± 0.058

KTICNLLISDTESNELI [IRR1]
protein stability index (doa10∆): 2.74 ± 0.063
protein stability index (pdr5∆): 2.73 ± 0.075
protein stability index (san1∆): 2.4 ± 0.055
protein stability index (ubr1∆): 2.68 ± 0.065

YVLSTAVEFESVPLRKG [BRR2]
protein stability index (doa10∆): 1.7 ± 0.043
protein stability index (pdr5∆): 1.45 ± 0.04
protein stability index (san1∆): 1.93 ± 0.083
protein stability index (ubr1∆): 1.34 ± 0.036

WQQVTALAQQKLLTPQD [GAL11]
protein stability index (doa10∆): 2.29 ± 0.058
protein stability index (pdr5∆): 2.38 ± 0.068
protein stability index (san1∆): 2.18 ± 0.085
protein stability index (ubr1∆): 2.45 ± 0.06

FPFVLKVDNDLRIELQS [SRB8]
protein stability index (doa10∆): 2.98 ± 0.12
protein stability index (pdr5∆): 3.05 ± 0.1
protein stability index (san1∆): 2.61 ± 0.098
protein stability index (ubr1∆): 3.31 ± 0.14

MDRDSESEEAETKDIRK [SRB4]
protein stability index (doa10∆): 3.21 ± 0.17
protein stability index (pdr5∆): 3.13 ± 0.14
protein stability index (san1∆): 2.62 ± 0.28
protein stability index (ubr1∆): 2.95 ± 0.16

LILIPGETMWVPIKSSK [RPN13]
protein stability index (doa10∆): 2.17 ± 0.083
protein stability index (pdr5∆): 2.51 ± 0.068
protein stability index (san1∆): 2.61 ± 0.057
protein stability index (ubr1∆): 1.81 ± 0.055

KLSKILPRYQELTKEEA [SMC3]
protein stability index (doa10∆): 3.16 ± 0.11
protein stability index (pdr5∆): 3.34 ± 0.094
protein stability index (san1∆): 3.34 ± 0.086
protein stability index (ubr1∆): 3.35 ± 0.1

LNICRQCFREKANDIGF [RPS29A]
protein stability index (doa10∆): 2.8 ± 0.094
protein stability index (pdr5∆): 2.97 ± 0.12
protein stability index (san1∆): 3.07 ± 0.1
protein stability index (ubr1∆): 2.86 ± 0.11

LSLHTGFIENCNGSALV [MTR3]
protein stability index (doa10∆): 2.65 ± 0.066
protein stability index (pdr5∆): 3 ± 0.06
protein stability index (san1∆): 2.79 ± 0.058
protein stability index (ubr1∆): 2.74 ± 0.067

NSITKDNIDYAPMRLAT [YJL039C/NUP192]
protein stability index (doa10∆): 2.58 ± 0.048
protein stability index (pdr5∆): 2.74 ± 0.038
protein stability index (san1∆): 2.71 ± 0.05
protein stability index (ubr1∆): 2.57 ± 0.035

YHLTKAVKLGDLKKFTS [RPN3]
protein stability index (doa10∆): 1.77 ± 0.065
protein stability index (pdr5∆): 1.8 ± 0.062
protein stability index (san1∆): 1.54 ± 0.11
protein stability index (ubr1∆): 1.78 ± 0.052

QSISGTLELSAQFRVPR [SWP82]
protein stability index (doa10∆): 2.46 ± 0.077
protein stability index (pdr5∆): 2.77 ± 0.069
protein stability index (san1∆): 2.52 ± 0.084
protein stability index (ubr1∆): 2.79 ± 0.066

QQLLPAPQLFPYGSFHQ [DSN1]
protein stability index (doa10∆): 2.72 ± 0.09
protein stability index (pdr5∆): 3.01 ± 0.1
protein stability index (san1∆): 2.72 ± 0.072
protein stability index (ubr1∆): 3.04 ± 0.08

ILVPDLYHLVIMKFQSL [ECM29]
protein stability index (doa10∆): 1.28 ± 0.081
protein stability index (pdr5∆): 1.3 ± 0.086
protein stability index (san1∆): 1.12 ± 0.15
protein stability index (ubr1∆): 1.38 ± 0.063

VRMRLAQLTHSLRRIRD [MED8]
protein stability index (doa10∆): 1.45 ± 0.041
protein stability index (pdr5∆): 2.04 ± 0.063
protein stability index (san1∆): 1.49 ± 0.087
protein stability index (ubr1∆): 1.91 ± 0.049

KKMMNTLVHTRVKIANT [SSN2]
protein stability index (doa10∆): 2.69 ± 0.066
protein stability index (pdr5∆): 2.35 ± 0.05
protein stability index (san1∆): 2.67 ± 0.041
protein stability index (ubr1∆): 2.78 ± 0.033

LFQNVPEQGEEPMKQLN [YAR002W/NUP60]
protein stability index (doa10∆): 3.62 ± 0.15
protein stability index (pdr5∆): 3.32 ± 0.16
protein stability index (san1∆): 3.51 ± 0.12
protein stability index (ubr1∆): 3.17 ± 0.12

NAIQTEVYGINEESTNE [SIR4]
protein stability index (pdr5∆): 3.03 ± 0.3
protein stability index (san1∆): 2.9 ± 0.25

KKKRFEIKKWTAVAFWS [HRT1]
protein stability index (doa10∆): 1.97 ± 0.18
protein stability index (pdr5∆): 1.58 ± 0.12
protein stability index (san1∆): 1.55 ± 0.26
protein stability index (ubr1∆): 2.27 ± 0.1

LRDTFIELDQVLNMLYW [RPO21]
protein stability index (doa10∆): 2.19 ± 0.1
protein stability index (pdr5∆): 2.51 ± 0.058
protein stability index (san1∆): 2.4 ± 0.07
protein stability index (ubr1∆): 2.27 ± 0.06

FIPNKQLNCVIDRVNGI [RPN7]
protein stability index (doa10∆): 2.47 ± 0.13
protein stability index (pdr5∆): 2.75 ± 0.21
protein stability index (san1∆): 2.73 ± 0.18
protein stability index (ubr1∆): 3.08 ± 0.18

AQDVALAKKWFLQHPDE [PRP8]
protein stability index (doa10∆): 2.7 ± 0.089
protein stability index (pdr5∆): 2.38 ± 0.095
protein stability index (san1∆): 2.33 ± 0.13
protein stability index (ubr1∆): 2.67 ± 0.077

KIVVVRAEALNISGEFF [RPL16B]
protein stability index (doa10∆): 2.51 ± 0.12
protein stability index (pdr5∆): 2.79 ± 0.12
protein stability index (san1∆): 2.56 ± 0.14
protein stability index (ubr1∆): 3 ± 0.089

KMIDFATLSKLKKKYQI [SIR3]
protein stability index (doa10∆): 2.9 ± 0.11
protein stability index (pdr5∆): 3.35 ± 0.1
protein stability index (san1∆): 3.53 ± 0.051
protein stability index (ubr1∆): 3.47 ± 0.048

SKMSDESFAELMTKLNS [RPC17]
protein stability index (doa10∆): 3.29 ± 0.12
protein stability index (pdr5∆): 3.67 ± 0.12
protein stability index (san1∆): 3.09 ± 0.098
protein stability index (ubr1∆): 3.37 ± 0.12

FELVSDLSYIEFLFESL [ECM29]
protein stability index (doa10∆): 2.88 ± 0.067
protein stability index (pdr5∆): 2.74 ± 0.077
protein stability index (san1∆): 2.97 ± 0.062
protein stability index (ubr1∆): 2.87 ± 0.049

NLNTDKLKNNASRSQLE [YJL039C/NUP192]
protein stability index (doa10∆): 2.22 ± 0.13
protein stability index (pdr5∆): 2.69 ± 0.065
protein stability index (san1∆): 2.81 ± 0.11
protein stability index (ubr1∆): 2.69 ± 0.064

RTQPWSIMPDLYFYRDP [RPS0A]
protein stability index (doa10∆): 2.55 ± 0.051
protein stability index (pdr5∆): 2.85 ± 0.056
protein stability index (san1∆): 2.85 ± 0.043
protein stability index (ubr1∆): 2.6 ± 0.055

KIPEREEKSNEVKTPKI [SIR4]
protein stability index (pdr5∆): 3.24 ± 0.21
protein stability index (san1∆): 3.46 ± 0.21
protein stability index (ubr1∆): 3.44 ± 0.15

QEKQEQQEQDKKKKSNH [PRE6]
protein stability index (doa10∆): 1.97 ± 0.048
protein stability index (pdr5∆): 1.81 ± 0.044
protein stability index (san1∆): 2.55 ± 0.06
protein stability index (ubr1∆): 1.65 ± 0.04

ETEFPPFREFLQVLIDQ [ECM29]
protein stability index (doa10∆): 3.46 ± 0.19
protein stability index (pdr5∆): 3.45 ± 0.16
protein stability index (san1∆): 3.2 ± 0.095
protein stability index (ubr1∆): 3.27 ± 0.12

VFVGTIFAGAFVFQTVF [QCR9]
protein stability index (doa10∆): 1.82 ± 0.061
protein stability index (pdr5∆): 1.4 ± 0.049
protein stability index (san1∆): 1.23 ± 0.11
protein stability index (ubr1∆): 1.5 ± 0.043

TKPSETPATIVKKPTFT [YOR098C/NUP1]
protein stability index (doa10∆): 2.91 ± 0.05
protein stability index (pdr5∆): 3.08 ± 0.057
protein stability index (san1∆): 3.09 ± 0.043
protein stability index (ubr1∆): 3.04 ± 0.054

QIDHFKSMLSKPETLSI [SWI3]
protein stability index (doa10∆): 2.61 ± 0.086
protein stability index (pdr5∆): 2.44 ± 0.074
protein stability index (san1∆): 2.73 ± 0.065
protein stability index (ubr1∆): 2.4 ± 0.048

NVFTPEISSQIEILVKD [RRI2]
protein stability index (doa10∆): 1.65 ± 0.1
protein stability index (pdr5∆): 2.02 ± 0.12
protein stability index (san1∆): 2.65 ± 0.15
protein stability index (ubr1∆): 1.3 ± 0.066

DSSSNTYRSRAQQVPPY [SIN4]
protein stability index (doa10∆): 2.89 ± 0.097
protein stability index (pdr5∆): 2.88 ± 0.17
protein stability index (san1∆): 3.15 ± 0.062
protein stability index (ubr1∆): 1.61 ± 0.11

RAPKANGALDPKMGVSS [RPO31]
protein stability index (doa10∆): 3.12 ± 0.23
protein stability index (pdr5∆): 3.11 ± 0.16
protein stability index (san1∆): 3.05 ± 0.093
protein stability index (ubr1∆): 3.04 ± 0.08

ALLNFVLPKIFNSVKSF [SNF2]
protein stability index (doa10∆): 2.44 ± 0.094
protein stability index (pdr5∆): 1.71 ± 0.066
protein stability index (san1∆): 1.98 ± 0.11
protein stability index (ubr1∆): 1.33 ± 0.043

NRSEQNGQEQQGPVKNT [RGR1]
protein stability index (doa10∆): 3.26 ± 0.16
protein stability index (pdr5∆): 3.39 ± 0.14
protein stability index (san1∆): 3.11 ± 0.11
protein stability index (ubr1∆): 3.55 ± 0.22

FGNTSTSSAPAQNQGMF [YGL172W/NUP49]
protein stability index (doa10∆): 3.3 ± 0.15
protein stability index (pdr5∆): 3.4 ± 0.24

EPDREKIKLLTQATSED [RPC19]
protein stability index (doa10∆): 2.95 ± 0.2
protein stability index (pdr5∆): 3.19 ± 0.11
protein stability index (san1∆): 2.73 ± 0.12
protein stability index (ubr1∆): 3.28 ± 0.11

TLGNLIRAELLNDRKVL [RPB11]
protein stability index (doa10∆): 3.06 ± 0.17
protein stability index (pdr5∆): 2.74 ± 0.25
protein stability index (san1∆): 3.08 ± 0.15
protein stability index (ubr1∆): 2.87 ± 0.23
